The target in assay [1] is T1, human calcitonin receptor (human, UniProt P30988 25-474).
T1 sequence (looked up): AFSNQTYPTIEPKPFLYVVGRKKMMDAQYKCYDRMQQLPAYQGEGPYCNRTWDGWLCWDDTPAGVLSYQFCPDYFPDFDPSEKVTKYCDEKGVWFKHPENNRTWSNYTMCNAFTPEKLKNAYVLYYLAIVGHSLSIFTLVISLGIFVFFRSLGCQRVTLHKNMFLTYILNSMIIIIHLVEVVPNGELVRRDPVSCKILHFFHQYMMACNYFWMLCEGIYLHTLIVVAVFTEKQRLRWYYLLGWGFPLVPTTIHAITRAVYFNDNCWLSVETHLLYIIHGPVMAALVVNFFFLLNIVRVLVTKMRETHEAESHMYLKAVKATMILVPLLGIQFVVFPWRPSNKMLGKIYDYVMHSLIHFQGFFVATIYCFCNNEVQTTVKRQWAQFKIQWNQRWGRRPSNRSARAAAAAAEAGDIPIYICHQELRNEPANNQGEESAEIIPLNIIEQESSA
Kind of assay: cell-based or functional assay.

The target of assay [2] is T2, human amylin receptor (amylin 3(a) receptor: human calcitonin receptor co-expressed with RAMP-3) (human, UniProt P30988 25-474; O60896 24-148, limits assumed).
T2 sequence (looked up) 1: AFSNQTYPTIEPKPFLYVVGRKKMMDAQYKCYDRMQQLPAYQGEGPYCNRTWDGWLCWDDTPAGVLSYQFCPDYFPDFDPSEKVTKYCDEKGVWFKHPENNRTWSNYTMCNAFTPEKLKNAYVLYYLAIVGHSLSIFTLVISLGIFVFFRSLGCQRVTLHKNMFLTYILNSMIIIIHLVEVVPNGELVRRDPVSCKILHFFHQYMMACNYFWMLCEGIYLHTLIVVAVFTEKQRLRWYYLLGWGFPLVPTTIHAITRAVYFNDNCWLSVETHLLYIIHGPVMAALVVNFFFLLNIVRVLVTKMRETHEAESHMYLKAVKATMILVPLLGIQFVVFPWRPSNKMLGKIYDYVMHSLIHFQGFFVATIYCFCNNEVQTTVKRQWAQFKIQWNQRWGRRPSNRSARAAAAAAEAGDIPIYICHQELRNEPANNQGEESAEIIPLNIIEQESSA
T2 sequence (looked up) 2: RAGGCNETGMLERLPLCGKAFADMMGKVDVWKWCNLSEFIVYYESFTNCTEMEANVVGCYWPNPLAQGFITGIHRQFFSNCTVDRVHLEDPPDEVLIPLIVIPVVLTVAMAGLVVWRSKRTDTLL
The assay can be described thus: cell-based or functional assay.

Numbered stars: 1 amine (or outer) side, 2 acyl side, 3 side chain; on linkers, the order of the positions; unused ones are H or OH. Bridge positions count the residues as written; N and C are the ends. Side chains are listed from the residue outwards. Ends that are not written are not given here. * marks the point of attachment. C20 diacid = O=C(O)CCCCCCCCCCCCCCCCCCC(=O)*; γGlu = O=C(O)[C@H](CCC(=O)[*:2])N[*:1]; AEEA = NCCOCCOCC(=O)O

Experimental findings from patent US20140087995A1 (published 2014) are described below.

B1: N^-1-[(4S)-4-carboxy-4-(19-carboxynonadecanoylamino)butanoyl]-Gly[Arg1,Arg17,Pro21,Pro27]-h-amylin (peptide)
peptide: {C20 diacid-γGlu}-GRCNTATCATQRLANFLRHSSPNFGAIPSSTNVGSNTY-NH2
modifications: disulfide 3-8
SMILES: CC[C@H](C)[C@H](NC(=O)[C@H](C)NC(=O)CNC(=O)[C@H](Cc1ccccc1)NC(=O)[C@H](CC(N)=O)NC(=O)[C@@H]1CCCN1C(=O)[C@H](CO)NC(=O)[C@H](CO)NC(=O)[C@H](Cc1c[nH]cn1)NC(=O)[C@H](CCCNC(=N)N)NC(=O)[C@H](CC(C)C)NC(=O)[C@H](Cc1ccccc1)NC(=O)[C@H](CC(N)=O)NC(=O)[C@H](C)NC(=O)[C@H](CC(C)C)NC(=O)[C@H](CCCNC(=N)N)NC(=O)[C@H](CCC(N)=O)NC(=O)[C@@H](NC(=O)[C@H](C)NC(=O)[C@@H]1CSSC[C@H](NC(=O)[C@H](CCCNC(=N)N)NC(=O)CNC(=O)CC[C@H](NC(=O)CCCCCCCCCCCCCCCCCCC(=O)O)C(=O)O)C(=O)N[C@@H](CC(N)=O)C(=O)N[C@@H]([C@@H](C)O)C(=O)N[C@@H](C)C(=O)N[C@@H]([C@@H](C)O)C(=O)N1)[C@@H](C)O)C(=O)N1CCC[C@H]1C(=O)N[C@@H](CO)C(=O)N[C@@H](CO)C(=O)N[C@H](C(=O)N[C@@H](CC(N)=O)C(=O)N[C@H](C(=O)NCC(=O)N[C@@H](CO)C(=O)N[C@@H](CC(N)=O)C(=O)N[C@H](C(=O)N[C@@H](Cc1ccc(O)cc1)C(N)=O)[C@@H](C)O)C(C)C)[C@@H](C)O
notes: 38 residues: N-terminal extension by Gly (-1G); also called compound 46
With B1, in assay [1], the “Ratio hCT/hAmylin funct. (hCTR EC50 against hAmylin-R EC50)” value was determined as 10.2 and the “hCTR funct. EC50” value was found to be 899 pM. In addition, the “hAmylin-R funct. EC50” value in assay [2] is 88 pM.

B2: N^ε1-[(4S)-4-carboxy-4-(19-carboxynonadecanoylamino)butanoyl]-[Arg17,Pro21,Pro27]-h-amylin (peptide)
peptide: K([γGlu-C20 diacid])CNTATCATQRLANFLRHSSPNFGAIPSSTNVGSNTY-NH2
modifications: disulfide 2-7; N-terminus assumed
SMILES: CC[C@H](C)[C@H](NC(=O)[C@H](C)NC(=O)CNC(=O)[C@H](Cc1ccccc1)NC(=O)[C@H](CC(N)=O)NC(=O)[C@@H]1CCCN1C(=O)[C@H](CO)NC(=O)[C@H](CO)NC(=O)[C@H](Cc1c[nH]cn1)NC(=O)[C@H](CCCNC(=N)N)NC(=O)[C@H](CC(C)C)NC(=O)[C@H](Cc1ccccc1)NC(=O)[C@H](CC(N)=O)NC(=O)[C@H](C)NC(=O)[C@H](CC(C)C)NC(=O)[C@H](CCCNC(=N)N)NC(=O)[C@H](CCC(N)=O)NC(=O)[C@@H](NC(=O)[C@H](C)NC(=O)[C@@H]1CSSC[C@H](NC(=O)[C@@H](N)CCCCNC(=O)CC[C@H](NC(=O)CCCCCCCCCCCCCCCCCCC(=O)O)C(=O)O)C(=O)N[C@@H](CC(N)=O)C(=O)N[C@@H]([C@@H](C)O)C(=O)N[C@@H](C)C(=O)N[C@@H]([C@@H](C)O)C(=O)N1)[C@@H](C)O)C(=O)N1CCC[C@H]1C(=O)N[C@@H](CO)C(=O)N[C@@H](CO)C(=O)N[C@H](C(=O)N[C@@H](CC(N)=O)C(=O)N[C@H](C(=O)NCC(=O)N[C@@H](CO)C(=O)N[C@@H](CC(N)=O)C(=O)N[C@H](C(=O)N[C@@H](Cc1ccc(O)cc1)C(N)=O)[C@@H](C)O)C(C)C)[C@@H](C)O
notes: also called compound 48
For the molecule B2, in assay [1], the “Ratio hCT/hAmylin funct. (hCTR EC50 against hAmylin-R EC50)” value came out at 17 and the “hCTR funct. EC50” value stood at 1970 pM. Besides, the “hAmylin-R funct. EC50” value in assay [2] is 116 pM.

B3: N^ε-[2-[2-[2-[[(4S)-4-carboxy-4-(19-carboxynonadecanoylamino)butanoyl]amino]ethoxy]ethoxy]acetyl]Lys[Arg1,Arg17,Pro21,Pro27,His35]-h-amylin (peptide)
peptide: K([AEEA-γGlu-C20 diacid])RCNTATCATQRLANFLRHSSPNFGAIPSSTNVGSHTY-NH2
modifications: disulfide 3-8; N-terminus assumed
SMILES: CC[C@H](C)[C@H](NC(=O)[C@H](C)NC(=O)CNC(=O)[C@H](Cc1ccccc1)NC(=O)[C@H](CC(N)=O)NC(=O)[C@@H]1CCCN1C(=O)[C@H](CO)NC(=O)[C@H](CO)NC(=O)[C@H](Cc1c[nH]cn1)NC(=O)[C@H](CCCNC(=N)N)NC(=O)[C@H](CC(C)C)NC(=O)[C@H](Cc1ccccc1)NC(=O)[C@H](CC(N)=O)NC(=O)[C@H](C)NC(=O)[C@H](CC(C)C)NC(=O)[C@H](CCCNC(=N)N)NC(=O)[C@H](CCC(N)=O)NC(=O)[C@@H](NC(=O)[C@H](C)NC(=O)[C@@H]1CSSC[C@H](NC(=O)[C@H](CCCNC(=N)N)NC(=O)[C@@H](N)CCCCNC(=O)COCCOCCNC(=O)CC[C@H](NC(=O)CCCCCCCCCCCCCCCCCCC(=O)O)C(=O)O)C(=O)N[C@@H](CC(N)=O)C(=O)N[C@@H]([C@@H](C)O)C(=O)N[C@@H](C)C(=O)N[C@@H]([C@@H](C)O)C(=O)N1)[C@@H](C)O)C(=O)N1CCC[C@H]1C(=O)N[C@@H](CO)C(=O)N[C@@H](CO)C(=O)N[C@H](C(=O)N[C@@H](CC(N)=O)C(=O)N[C@H](C(=O)NCC(=O)N[C@@H](CO)C(=O)N[C@@H](Cc1c[nH]cn1)C(=O)N[C@H](C(=O)N[C@@H](Cc1ccc(O)cc1)C(N)=O)[C@@H](C)O)C(C)C)[C@@H](C)O
notes: 38 residues: N-terminal extension by Lys (-1K); also called compound 45
For the molecule B3, in assay [1], the “Ratio hCT/hAmylin funct. (hCTR EC50 against hAmylin-R EC50)” value was found to be 17 and the “hCTR funct. EC50” value was determined as 10100 pM. Further, the “hAmylin-R funct. EC50” value in assay [2] was found to be 594 pM.
